The target of test [1] is target antigen of mab 231 on canine lymphoma cells (canine). Nature of the test: FACS on canine lymphoma cells positive for the mab 231 antigen, anti-mouse IgG secondary.
Test [2] shares this target. Put plainly: FACS on canine lymphoma cells positive for the mab 231 antigen, FITC anti-dog IgG secondary.

B1: murine anti-canine lymphoma monoclonal antibody mab 231 (ATCC HB-9401) (antibody, V domains shown)
VH: EVKLVESGGGLVQPGGSLKLSCATSGFTFSDYYMYWVRQTPEKRLEWVAYISNGGGSTYYPDTVKGRFTISRDNAKNTLYLQMSRLKSEDTAMYYCARHGGYYAMDYWGQGTSVTVSS
VL: DIQMNQSPSSLSASLGDTITITCHASQNINVWLSWYQQKPGNIPKLLIYKASNLHTGVPSRFSGSGSGTGFTLTISSLQPEDIATYYCQQGQSYPLTFGGGTKLEIK
Take B1: the Binding (%) in test [1] amounted to 74.2%.

B2: VET118 VET218 anti-canine lymphoma antibody variant (mab 231 variable domains with canine FR4) (antibody)
light: DIQMNQSPSSLSASLGDTITITCHASQNINVWLSWYQQKPGNIPKLLIYKASNLHTGVPSRFSGSGSGTGFTLTISSLQPEDIATYYCQQGQSYPLTFGGGTHLTVLGQPKASPSVTLFPPSSEELGANKATLVCLISDFYPSGVTVAWKADGSPITQGVETTKPSKQSNNKYAASSYLSLTPDKWKSHSSFSCLVTHEGSTVEKKVAPAECS
heavy: EVKLVESGGGLVQPGGSLKLSCATSGFTFSDYYMYWVRQTPEKRLEWVAYISNGGGSTYYPDTVKGRFTISRDNAKNTLYLQMSRLKSEDTAMYYCARHGGYYAMDYWGQGTSVTVSSASTTAPSVFPLAPSCGSTSGSTVALACLVSGYFPEPVTVSWNSGSLTSGVHTFPSVLQSSGLYSLSSMVTVPSSRWPSETFTCNVAHPASKTKVDKPVPKRENGRVPRPPDCPKCPAPEMLGGPSVFIFPPKPKDTLLIARTPEVTCVVVDLDPEDPEVQISWFVDGKQMQTAKTQPREEQFNGTYRVVSVLPIGHQDWLKGKQFTCKVNNKALPSPIERTISKARGQAHQPSVYVLPPSREELSKNTVSLTCLIKDFFPPDIDVEWQSNGQQEPESKYRTTPPQLDEDGSYFLYSKLSVDKSRWQRGDTFICAVMHEALHNHYTQKSLSHSPGK
As to B2, the Binding (%) in test [2] stood at 27.2%.

The record behind these values is patent US20130344077A1 (VET THERAPEUTICS, published 2013).
